In patent US20190300967:

System: high-mobility group box 1 (HMGB1)
Sequence (chain, as listed by the source): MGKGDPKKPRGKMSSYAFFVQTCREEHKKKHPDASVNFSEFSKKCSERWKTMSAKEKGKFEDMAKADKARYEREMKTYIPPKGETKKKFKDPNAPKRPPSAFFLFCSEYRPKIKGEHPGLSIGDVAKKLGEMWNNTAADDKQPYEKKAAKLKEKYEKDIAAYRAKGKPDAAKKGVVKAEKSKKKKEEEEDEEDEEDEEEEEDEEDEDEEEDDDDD

MAGE-A3/6-TRIM28 E3 ubiquitin ligase
in vitro ubiquitination reactions on protein microarrays containing >9000 recombinant proteins (screen for direct substrates of MAGE-A): As a significantly ubiquitinated target of the MAGE-TRIM28 complex, high-mobility group box 1 (HMGB1) emerged
